The values that follow come from US20260317443 (published 2026).

B1: 25B05_H1-L3 (antibody, V domains shown)
VH: QVQLVQSGAEVKKPGASVKVSCKASGYTFTDYFMNWVRQAPGQRLEWMGVINPHNGGTSYSQKFQGRVTITRDTSASTAYMELSSLRSEDTAVYYCARRPLGSDYWGQGTTVTVSS
VL: DIQMTQSPSSVSASVGDRVTITCKASQNVGTAVAWYQQKPGKAPKLLIYSASSRYTEVPDRFSGSGSGTDFTLTISSLQPEDFATYYCQQYSSYPLTFGQGTKLEIK
B2: 25B05_H4-L1 (antibody, V domains shown)
VH: B1 VH with Q1E, I70L, R72V, T74K, A76S
VL: B1 VL with E57G, D60S
B3: 25B05_H3-L1 (antibody, V domains shown)
VH: B1 VH with Q1E, R72V, T74K, A76S
VL: B1 VL with E57G, D60S
B4: 25B05_H2-L1 (antibody, V domains shown)
VH: B1 VH with R72V, T74K, A76S
VL: B1 VL with E57G, D60S
B5: 25B05_H4-L4 (antibody, V domains shown)
VH: B1 VH with Q1E, I70L, R72V, T74K, A76S
VL: B1 VL with Q3V
B6: 25B05_H2-L4 (antibody, V domains shown)
VH: B1 VH with R72V, T74K, A76S
VL: B1 VL with Q3V
B7: 25B05_H1-L2 (antibody, V domains shown)
VH: B1 VH
VL: B1 VL with Q3V, E57G, D60S
B8: 25B05_H1-L4 (antibody, V domains shown)
VH: B1 VH
VL: B1 VL with Q3V
B9: 25B05_H3-L3 (antibody, V domains shown)
VH: B1 VH with Q1E, R72V, T74K, A76S
VL: B1 VL
B10: 25B05_H1-L1 (antibody, V domains shown)
VH: B1 VH
VL: B1 VL with E57G, D60S
B11: 33D03_par (antibody, V domains shown)
VH: EVQLQQSRPVLVKPGASVKMSCKASGYTFTDYYLNWVKQSPGKRLEWIGIINPYNGGTNYNQRFKGKATLTVDKSSSTAYMELNSLTSEDSAVYFCASEGLRTWFTYWGQGTLVTVSA
VL: DIVMTQSPSSLSVSAGEKVTMSCKSSQSLSNSGNQKIYLAWYQQKPGQPPKLLIYGASSRESGVPDRFTGSGSEIDFTLTISSVQAEDLAVYYCQNDHSHPFTFGSGTKLEIK
B12: 33D03_H1-L4 (antibody, V domains shown)
VH: QVQLVQSGAEVKKPGASVKVSCKASGYTFTDYYLNWVRQAPGQRLEWMGIINPYNGGTNYSQKFQGRVTITRDTSASTAYMELSSLRSEDTAVYYCASEGLRTWFTYWGQGTLVTVSS
VL: B11 VL with S9D, S12A, A15L, K18R, V19A, M21I, T69S, V84L, L89V, S106Q
B13: 33D03_H5-L4 (antibody, V domains shown)
VH: B12 VH with Q1E, S61N, K63R, Q65K, I70L, R72V, T74K, A76S
VL: B11 VL with S9D, S12A, A15L, K18R, V19A, M21I, T69S, V84L, L89V, S106Q
B14: 33D03_H3-L4 (antibody, V domains shown)
VH: B12 VH with R72V, T74K, A76S
VL: B11 VL with S9D, S12A, A15L, K18R, V19A, M21I, T69S, V84L, L89V, S106Q
B15: 33D03_H4-L1 (antibody, V domains shown)
VH: B12 VH with S61N, K63R, Q65K, R72V, T74K, A76S
VL: DIVMTQSPDSLAVSLGERATINCKSSQSLSNSGNQKIYLAWYQQKPGQPPKLLIYGASSRESGVPDRFSGSGSGTDFTLTISSLQAEDVAVYYCQNDHSHPFTFGQGTKLEIK
B16: 33D03_H5-L3 (antibody, V domains shown)
VH: B12 VH with Q1E, S61N, K63R, Q65K, I70L, R72V, T74K, A76S
VL: B15 VL with G74E, T75I
B17: 33D03_H5-L1 (antibody, V domains shown)
VH: B12 VH with Q1E, S61N, K63R, Q65K, I70L, R72V, T74K, A76S
VL: B15 VL
B18: 33D03_H3-L1 (antibody, V domains shown)
VH: B12 VH with R72V, T74K, A76S
VL: B15 VL
B19: 33D03_H5-L2 (antibody, V domains shown)
VH: B12 VH with Q1E, S61N, K63R, Q65K, I70L, R72V, T74K, A76S
VL: B15 VL with N22S
B20: 33D03_H3-L2 (antibody, V domains shown)
VH: B12 VH with R72V, T74K, A76S
VL: B15 VL with N22S
B21: 33D03_H1-L1 (antibody, V domains shown)
VH: B12 VH
VL: B15 VL
B22: 33D03_H1-L2 (antibody, V domains shown)
VH: B12 VH
VL: B15 VL with N22S

Numbering of substitutions follows the chain as printed.

Chain of human VWF (human) (P04275 whole entry): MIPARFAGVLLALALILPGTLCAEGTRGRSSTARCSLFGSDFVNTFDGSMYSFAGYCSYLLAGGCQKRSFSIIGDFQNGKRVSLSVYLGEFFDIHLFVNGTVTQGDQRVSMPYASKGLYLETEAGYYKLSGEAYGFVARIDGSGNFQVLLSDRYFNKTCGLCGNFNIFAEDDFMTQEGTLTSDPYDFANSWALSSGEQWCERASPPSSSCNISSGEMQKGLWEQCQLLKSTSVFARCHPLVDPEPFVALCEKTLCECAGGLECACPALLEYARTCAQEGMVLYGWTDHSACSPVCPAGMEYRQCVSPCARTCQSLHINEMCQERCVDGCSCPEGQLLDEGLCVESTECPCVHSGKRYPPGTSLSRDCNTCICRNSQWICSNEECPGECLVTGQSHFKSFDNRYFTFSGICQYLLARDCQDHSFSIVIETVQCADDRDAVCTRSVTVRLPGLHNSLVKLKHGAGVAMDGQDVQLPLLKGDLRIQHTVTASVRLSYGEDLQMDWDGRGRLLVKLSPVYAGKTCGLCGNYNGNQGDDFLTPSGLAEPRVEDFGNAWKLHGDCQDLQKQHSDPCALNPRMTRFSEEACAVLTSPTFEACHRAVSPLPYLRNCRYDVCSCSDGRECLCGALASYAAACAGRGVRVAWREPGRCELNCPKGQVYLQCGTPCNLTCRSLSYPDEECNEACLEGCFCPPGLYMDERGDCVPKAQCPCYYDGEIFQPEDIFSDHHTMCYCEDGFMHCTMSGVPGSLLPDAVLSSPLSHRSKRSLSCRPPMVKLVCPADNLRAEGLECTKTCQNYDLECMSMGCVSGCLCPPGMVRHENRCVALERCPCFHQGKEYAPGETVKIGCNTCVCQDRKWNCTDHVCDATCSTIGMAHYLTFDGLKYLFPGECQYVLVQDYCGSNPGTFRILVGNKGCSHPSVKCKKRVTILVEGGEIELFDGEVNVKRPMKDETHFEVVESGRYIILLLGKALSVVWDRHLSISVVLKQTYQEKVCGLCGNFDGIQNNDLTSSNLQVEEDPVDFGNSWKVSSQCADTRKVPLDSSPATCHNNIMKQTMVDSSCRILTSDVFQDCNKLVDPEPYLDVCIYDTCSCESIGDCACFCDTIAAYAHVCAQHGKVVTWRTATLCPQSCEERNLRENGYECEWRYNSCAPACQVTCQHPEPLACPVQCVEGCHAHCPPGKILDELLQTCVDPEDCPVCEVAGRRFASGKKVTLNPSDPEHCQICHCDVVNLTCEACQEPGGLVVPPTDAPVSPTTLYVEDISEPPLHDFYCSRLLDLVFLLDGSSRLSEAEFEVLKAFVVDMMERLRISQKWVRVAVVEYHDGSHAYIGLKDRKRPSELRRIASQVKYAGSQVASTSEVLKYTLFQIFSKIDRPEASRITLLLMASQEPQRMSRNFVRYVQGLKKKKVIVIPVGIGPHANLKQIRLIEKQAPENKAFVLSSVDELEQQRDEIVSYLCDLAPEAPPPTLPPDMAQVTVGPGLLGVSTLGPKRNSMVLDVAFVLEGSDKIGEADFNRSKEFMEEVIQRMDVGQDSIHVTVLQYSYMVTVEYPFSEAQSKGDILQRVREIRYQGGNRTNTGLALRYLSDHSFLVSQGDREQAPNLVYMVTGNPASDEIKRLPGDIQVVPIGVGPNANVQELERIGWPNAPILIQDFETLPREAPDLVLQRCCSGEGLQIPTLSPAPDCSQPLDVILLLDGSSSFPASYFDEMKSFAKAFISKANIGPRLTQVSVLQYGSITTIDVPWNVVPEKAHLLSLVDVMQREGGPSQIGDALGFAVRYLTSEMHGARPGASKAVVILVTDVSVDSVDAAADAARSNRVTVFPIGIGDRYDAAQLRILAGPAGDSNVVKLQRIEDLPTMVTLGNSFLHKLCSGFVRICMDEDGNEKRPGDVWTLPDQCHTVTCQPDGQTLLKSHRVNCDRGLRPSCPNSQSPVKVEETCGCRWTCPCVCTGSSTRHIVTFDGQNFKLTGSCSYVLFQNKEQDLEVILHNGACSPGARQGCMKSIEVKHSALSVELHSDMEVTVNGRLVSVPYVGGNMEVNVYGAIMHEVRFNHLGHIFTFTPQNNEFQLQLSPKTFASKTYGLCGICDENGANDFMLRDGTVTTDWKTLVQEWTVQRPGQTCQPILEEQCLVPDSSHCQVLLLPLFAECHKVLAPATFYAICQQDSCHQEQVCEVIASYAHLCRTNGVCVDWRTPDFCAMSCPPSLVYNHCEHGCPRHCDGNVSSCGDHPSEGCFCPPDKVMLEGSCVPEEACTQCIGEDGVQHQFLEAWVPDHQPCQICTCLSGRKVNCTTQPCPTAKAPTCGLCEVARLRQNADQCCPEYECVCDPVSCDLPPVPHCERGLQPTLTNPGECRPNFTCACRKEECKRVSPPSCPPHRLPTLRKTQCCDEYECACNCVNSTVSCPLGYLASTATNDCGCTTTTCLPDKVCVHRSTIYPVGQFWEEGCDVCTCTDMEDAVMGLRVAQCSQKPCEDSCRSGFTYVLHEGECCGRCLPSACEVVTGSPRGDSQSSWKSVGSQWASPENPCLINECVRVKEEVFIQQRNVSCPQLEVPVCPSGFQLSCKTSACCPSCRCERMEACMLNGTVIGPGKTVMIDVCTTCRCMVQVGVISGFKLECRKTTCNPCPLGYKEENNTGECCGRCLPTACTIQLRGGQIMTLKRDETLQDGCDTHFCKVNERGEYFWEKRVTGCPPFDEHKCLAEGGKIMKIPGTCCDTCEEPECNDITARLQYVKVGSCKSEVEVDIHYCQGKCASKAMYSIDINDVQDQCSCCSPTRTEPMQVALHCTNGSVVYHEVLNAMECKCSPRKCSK

This test has as its target human VWF (human). Kind of test: ELISA. (In general: In an ELISA, binding on a coated surface is turned into a signal by an enzyme label.)
The molecule B1 came in with an EC50 of 0.0335 µg/mL. As for B2, the figure is 0.0385 µg/mL; as for B3, 0.0594 µg/mL. The value for B4 was 0.0612 µg/mL; that for B5 was 0.0264 µg/mL. As for B6, the figure is 0.0312 µg/mL; as for B7, 0.0334 µg/mL. B8: a half-maximal effect (EC50) was put at 0.0344 µg/mL. This EC50 and that of the molecule before are within 1.5-fold of each other. As for B9, the figure is 0.0434 µg/mL; as for B10, 0.0312 µg/mL. In the case of B11, the response was half-maximal at 0.0498 µg/mL (EC50).

In the case of B12, the EC50 stood at 0.054 µg/mL. B13: the midpoint of the response, the EC50, lay at 0.0365 µg/mL. The value for B14 was 0.0434 µg/mL.

B15 registered an EC50 of 0.0381 µg/mL.

Molecule B16 came in with an EC50 of 0.0335 µg/mL.

With B17, the EC50 came to 0.0297 µg/mL. As for B18, the figure is 0.0447 µg/mL; as for B19, 0.0294 µg/mL; as for B20, 0.0457 µg/mL.

Take B21: the response was half-maximal at 0.0437 µg/mL (EC50). As for B22, the figure is 0.0453 µg/mL.

By EC50 is commonly meant the midpoint of the concentration-response curve. Low readings indicate higher potency in that assay, high ones lower potency in that assay.
